Data published in the DeepSol protein solubility set.

Test: soluble on expression in E. coli; label from the status in PepcDB or PDB records

| Sequence | soluble on expression in E. coli |
| --- | --- |
| PAKRAFSNADQFVETMLPLAKEAAARIGVDPVMLVAQAALETGWGKSIMRQQDGSSSHNLFGIKAAGSWKGAEARAITSEFRDGKMVKETADFRSYDSYADSFHDLVSLLQNNNRYKDVVNSADKPEQFVKELQKAGYATDPAYASKISQIAKQMKS | not soluble |
| MGKVLIIGAGGVGTVVAKKVAMNTDVFTEIMLASRTRSKCDKIASEIKNVRIQTAQVDADNVEELVALFESFKPELVINVALPYQDLTIMDACLRCGVNYLDTANYEPLDEAKYEYSWQWAYQDRFRK | not soluble |
| MGSDKIHHHHHHMKIQNTEWGYIEWKHTYDENNPKQAMNIYIAVTMPGKKHFNHVHYGQEQMIYILEGEGLYIINGVWKPFYQGMIFYIESGSTHETINTGDREIKELIVSNNVDDVGESEIIDINPNNYLKKTLINYSESTLNLYAAVESIRGQFIDPFKIPLIIYDDSWNIVLKNPYFPLFCFEKCNPMKFPQNCDCMNQKSSNQFVCEYGITIYNIPILYKSNSIGVIRGGYVLLSDLNLDTEHNNLYDIPEGAARSIKRLLKQISKNIINFCSFNDIRKDLQEKEKTIARTYHYGEQLEMNLKVAQDMVTNLRINHHFLFNTLNSMASIALDDGSYDLYSAIIDLSRMFRYTMRSDLRFVELESEILYIKNYLNLQKLRYGDALKVKYLIPEKLYNLSVPFNFIQPIVENAFTHGFRDIDTEKRIEIIARLDSQYAIIEIHNNGTILDGNNIDKIKAGIRSNNGHGLSLIYTKFTSAYGNNFDMDIKSSDNEGTYIMIKIPIENYKEYV | not soluble |
| MPKVGMQPIRRQQLIQATLTAVDQVGMGDASIALIARLAGVSNGIISHYFQDKNGLIAATMRHLMNALIQNVRERRQALTEDSPRAHLQVIIEGNFDASQVSGPAMKTWLAFWATSMHHPSLHRLQRINDHRLYSNLCCQFRRTLPLEQARNAARGLAALIDGLWLRGALSGDAFDTEQAQRIAYEYMDFQLAKSAS | not soluble |
| MGSDKIHHHHHHMARARTQYKCRSCGYISASYLGRCPNCGAWNQFEKESQEVRQTSTKATPSRLMASVGAKEAVKMSTVKAEKEERVLTKSSELNRVLGGGIVPGSLVLIGGDPGIGKSTLMLQIMSELAEKYKVLYVSGEESASQIKLRADRLGLGQSPMLLYPESNMEHIRDQIDDVKPDFVVIDSIQTMNEPSLDSMVGSASQVREVTAELMKIAKLDQVTVFVIGHVTKEGSIAGPKILEHMVDTVLYFEGDEHHAYRILHSVKNRFGAANEIGMFEMKTEGLAEVTNPSAVFLDERLPDSTGSAVVVSLEGTRPIL | not soluble |
| GAQRRNEIQVPDLDGYTTLKCDFHMHSVFSDGLVWPTVRVDEAYRDGLDAISLTEHIEYRPHKQDVVSDHNRSFDLCREQAEKLGILLIKGSEITRAMAPGHFNAIFLSDSNPLEQKDYKDAFREAKKQGAFMFWNHPGWDSQQPDTTKWWPEHTALYQEGCMHGIEVANGHLYMPEAIQWCLDKNLTMIGTSDIHQPIQTDYDFEKGEHRTMTFVFAKERSLQGIREALDNRRTAAYFHELLIGREDLLRPFFEKCVKIEEVSRNEQGVTLSITNVTDLVLKLKKTAHDTLLVYFRDMTLKPHTRYTVRIGFKQGIKGGDVNFEVTNFIVAPDKGLKYTISL | soluble |
| MFVAREHELQVLEKLFTSDSFEMVVLYGRRRVGKTALIDEFVKDKRVLYFTAIQQSAKMNLEDFSRAALSFFGMPDSTPSFGGWSDALSFVAERAAQTDERMVFVFDEFPYAAAAEPALPSMLQIAIDHGFLATKVTMILSGSNEGFMENDVLGRKSPLYGRRTAQIRLLPFDYADAAKFLTNTSPQELVQYYATFGGTPYYLARIQEADGFESNVLRLMFDNLGVLREEPMMLLRQELREPASYYSILQSIAGGNSSPKLIAEHAGVGSDSIGAYLKTLVDLRLIERKVPFGEDPSKSRKGMYVVSDPFFAYWFRFVGRNMSILDGNISEEVTSRLAFGPAFDTYVGQQFETICLQWLIRNNAMGNLPFVATQFGKWWGNDPIAHEQTDIDVIAADSLDKTILFGECKWRNSFNETEAIEKLHQRAGLVRGYQAGNAWLMLFTKNPVSESTRTRYMDDERMVFVSAEELYTALEHHHHHH | not soluble |
| MSLGIGKEAEVKKSFEKTLSMYPIKNLEDLYDKEGYRDDQFDKNDKGTWIINSEMVIQPNNEDMVAKGMVLYMNRNTKTTNGYYYVDVTKDEDEGKPHDNEKRYPVKMVDNKIIPTKEIKDKNIKKEIENFKFFVQYGNFKDLSKYKDGDISYNPEVPSYSAKYQVTNDDYNVKQLRKRYDIPTNKAPKLLLKGTGNLKGSSVGYKDIEFTFVEKKGENIYFSDSLHLEPSEDKEGHHHHHH | soluble |
| MYEPLHRDAEQKDTAPHDPISILLLGIDERPGDKGRPDSMIVMTVNPKTKKTTMTSIPRDTRVFIKSKNKFSKMNSAYTYGGIEGTVETVEQFLNIPINYYIKINMDGFKDIVDAIGGVTVDNRIDFTLEGVHLSKGKQHLDGKTALTYARMRKDDPRGDFGRQERQREIINEIIHEGAQLKSLTNYQEILAALEKNIKTNLTLDKMIDIQSSYKEAAKDIKQVEIEGEDKKVDSLWYHLVTDEKRMEISKKLRQQLDLKSLEHHHHHH | soluble |
| MENVNRNHKNSVFSSLFSTPDVLRELYSAIEGIPIPPDIPIDINTLTDILYKGQINDVSFVINNRLVVLIEHQSTINANIPLRLLMYIARVYEKIINRKKLYQSKLEKIPLPEFIVLYNGEKEYSDFQELKLSDAFKDIDGLKLSGIEKIPLELIVQVYNINHGHNPEILKRSETLDSYSIFINKIREYQKEKDSLEKAARSAIIYCIKNNILKDYLEAHASEVLNMLLTEWNQDEAVEVAREEGREEGREEGHENGLKEGKMIIAKNLLEKGSTPEFVREITGLSPEEIEEIELND | soluble |
| MGSDKIHHHHHHMPVMFQQMQYFIAIVNNHSFTQAAVDCHISQSAISQQMKELESQLGVKLLNRKGRSFEVTEAGQYFYIHSQDILADVDQLIKKTIKIEKNDEVELRVGYLRSFGTAEFLQTVSKFTQEFPKVKIKISSGTHEELYELLQTGKIDLNFSDQRRALSNEYQNEFLTASEFMVAVNNSLPVETQKIDVADLVDIPCILIIDGHQQVSEEEYYRNVLGVKSEFVIAKSYDEAQMLIASNQGYLIINQRMRTQLDKDIVKMISLVKGDRKLIQNYYAYWQANNSGYYIETFAELLKQTFA | not soluble |
| MKPSHQQQKQASAAKDEKKDIIPLSAEKADGAEGWLNNSTILYTASNPTKTELFPYRIFTGKAKKLYQTDGQIVDVQINAREQMILLQITHSQKTAVVLLNAEGETLYEKDYETYELEAAWNQYDPYQMMVTEFNENWDFHTYQVNAKKDESFLSPVQVPFIHWTSKNTFDYVKEGRDDKTGPLYTFDTASKTEQKLEDNVLFFDSFHQMSFTVKSASGGKGTYQFKTPQSTSPVTAKWPLQAKYTSLAPMEYDYDEAGSLFYTFKQSGDAYKLAAINVASGETKDLVSLREMEPIQISPNGKYALYGFHFEQIILLKSHETKQLIIDQKEMELEHHHHHH | soluble |
| MGSDKIHHHHHHMAAFQTAAQLARAVQSGETTPQQLLHGALARAEAVRGLNALVSLNSHAEEQAAAVQGRMQAGETLPLAGVPIVVKDNINVTGTRTTCGSRMLANYVSPYTATAAQKLQGAGAVIVGKANMDEFAMGSSTESSASGPTLNPWDHERVPGGSSGGSAVAVAAGISPVSLGSDTGGSVRQPAALCGVYGFKPTYGRVSRYGLVAYASSLDQIGPFARSAEDLALLMNVIAGHDPRDATSLDAPARFAVGGADSLRGLRVGVIRESLGGNTPGVEAALGATLDALRGAGAVVGEVSIPELEYAIAAYYLIAMPEASSNLARYDGMVYGERVPGGDVTRSMTLTREQGFGQEVQRRILLGTYALSSGYYDAYYAKAMKVRRLIADEFTTAFGQYDVLVTPTSPFPAFRRGEKASDPLAMYAADVDTVAVNLAGLPALSVPAGFEEVDGKRLPVGVQFIAPALQDERLLALAGALEAVGAVQLEMPQD | not soluble |
| MQMDGSKHMGTGAADAPFYLAQGDECDIFTAAYDNNLPVLLKGPTGCGKTRFVAHMAAKLGRPLYTVACHDDLAAADLIGRYLLKGGETVWVDGPLTRAVREGAICYLDEVVEARKDVTVVLHPLTDDRRILPIDRTGEELEAMPGFMLVASYNPGYQNILKTLKPSTRQRFISLEFDFPAPELEARVVSQESGLPLERCKPLIRLAGKLRGLKGQDLEEGVSTRLVVYAATLIAQGMPTERAILAAMVEPLTDDEDIKRGLLDLTTAVFGLEHHHHHH | not soluble |
